Source: publication doi:10.1101/444885 (bioRxiv, 2018)
Residue numbers refer to the chain shown, from its start. Names and notes keep the numbering of the source. Read-outs that look alike come from different tables or passages of the source.

T1: DnaD DDBH2 domain (residues 129-232) (Bacillus subtilis, UniProt P39787 129-232)
T1 sequence: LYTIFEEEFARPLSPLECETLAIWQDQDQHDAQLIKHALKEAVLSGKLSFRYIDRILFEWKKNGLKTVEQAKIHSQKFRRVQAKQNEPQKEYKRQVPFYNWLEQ

B1: DnaA domain I (residues 1-81) (domain or fragment)
chain: MENILDLWNQALAQIEKKLSKPSFETWMKSTKAHSLQGDTLTITAPNEFARDWLESRYLHLIADTIYELTGEELSIKFVIP
B2: DnaA N191C, labelled with Cy3B or Atto647N (natural protein)
chain: MENILDLWNQALAQIEKKLSKPSFETWMKSTKAHSLQGDTLTITAPNEFARDWLESRYLHLIADTIYELTGEELSIKFVIPQNQDVEDFMPKPQVKKAVKEDTSDFPQNMLNPKYTFDTFVIGSGNRFAHAASLAVAEAPAKAYNPLFIYGGVGLGKTHLMHAIGHYVIDHNPSAKVVYLSSEKFTNEFICSIRDNKAVDFRNRYRNVDVLLIDDIQFLAGKEQTQEEFFHTFNTLHEESKQIVISSDRPPKEIPTLEDRLRSRFEWGLITDITPPDLETRIAILRKKAKAEGLDIPNEVMLYIANQIDSNIRELEGALIRVVAYSSLINKDINADLAAEALKDIIPSSKPKVITIKEIQRVVGQQFNIKLEDFKAKKRTKSVAFPRQIAMYLSREMTDSSLPKIGEEFGGRDHTTVIHAHEKISKLLADDEQLQQHVKEIKEQLK
B3: DnaA(N191C/A198C) (natural protein)
chain: B2 chain with A198C
B4: DnaA A198C, labelled with Cy3B or Atto647N (natural protein)
chain: B2 chain with C191N, A198C
modifications: Cy3B-maleimide or Atto647N-maleimide on the cysteine at 198
B5: truncated DnaD DDBH2 domain (residues 129-196) (domain or fragment)
chain: LYTIFEEEFARPLSPLECETLAIWQDQDQHDAQLIKHALKEAVLSGKLSFRYIDRILFEWKKNGLKTV
B6: DnaD (full length) (natural protein)
chain: MKKQQFIDMQEQGTSTIPNLLLTHYKQLGLNETELILLLKIKMHLEKGSYFPTPNQLQEGMSISVEECTNRLRMFIQKGFLFIEECEDQNGIKFEKYSLQPLWGKLYEYIQLAQNQTQERKAEGEQKSLYTIFEEEFARPLSPLECETLAIWQDQDQHDAQLIKHALKEAVLSGKLSFRYIDRILFEWKKNGLKTVEQAKIHSQKFRRVQAKQNEPQKEYKRQVPFYNWLEQ

How the values were obtained:
[1] = biological target: T1, DnaD DDBH2 domain (residues 129-232); test: NMR titration
[2] = biological target: T1, DnaD DDBH2 domain (residues 129-232); test: NMR titration; remark: listed apart in the source
[3] = biological target: the molecule itself; test: FRET or BRET
[4] = biological target: the molecule itself; test: cross-linking
[5] = biological target: B1; test: NMR titration
[6] = biological target: B3; test: loss and rescue of BMOE cross-linking of DnaA-DNA filaments

Question: Which Kd [1] does the source give for B1 here?
Answer: 665 ± 251 µM

Question: And the Kd [2]?
Answer: 768 ± 168 µM

Question: Does B2 bind [3]?
Answer: binds

Question: Does B3 bind [4]?
Answer: binds

Question: Does B4 bind [3]?
Answer: binds

Question: Does B5 bind [5]?
Answer: binds

Question: Does B6 bind [6]?
Answer: binds
